Experimental data taken from US20050026256.

Biological target: T1, synthetic peptide substrate SEVNLDAEFR containing the APP Swedish mutation
T1 chain: SEVNLDAEFR

B1: Hu-Asp2 (human aspartyl protease 2), full-length, expressed from pcDNA3.1(+)Hygro/Hu-Asp2 (protein)
chain: TQHGIRLPLRSGLGGAPLGLRLPRETDEEPEEPGRRGSFVEMVDNLRGKSGQGYYVEMTVGSPPQTLNILVDTGSSNFAVGAAPHPFLHRYYQRQLSSTYRDLRKGVYVPYTQGKWEGELGTDLVSIPHGPNVTVRANIAAITESDKFFINGSNWEGILGLAYAEIARPDDSLEPFFDSLVKQTHVPNLFSLQLCGAGFPLNQSEVLASVGGSMIIGGIDHSLYTGSLWYTPIRREWYYEVIIVRVEINGQDLKMDCKEYNYDKSIVDSGTTNLRLPKKVFEAAVKSIKAASSTEKFPDGFWLGEQLVCWQAGTTPWNIFPVISLYLMGEVTNQSFRITILPQQYLRPVEDVATSQDDCYKFAISQSSTGTVMGAVIMEGFYVVFDRARKRIGFAVSACHVHDEFRTAAVEGPFVTLDMEDCGYNIPQTDESTLMTIAYVMAAICALFMLPLCLMVCQWRCLRCLRQQHDDFADDISLLK
  hydrolysis of the synthetic peptide substrate, RP-HPLC with UV detection; products identified by Edman sequencing and MALDI-TOF: the two product peaks which eluted before the intact peptide substrate, were confirmed to have the sequence DAEFR and SEVNL
  β-secretase activity of chromatography fractions (peptide substrate assay): Fractions containing both Hu-Asp2 immunoreactivity and β-secretase activity were combined
